Data as given in patent publication US20240110154A1, “Engineered NKT Cells for Expansion and In Vivo Preservation and Methods of Use for the Control of Tumor Cells” (Baylor College of Medicine, priority 2021, published 2024).

Tested on: NKTs
Experiment: CD62L expression by flow cytometry on day 12 after antigenic stimulation of NKTs treated with Wnt activators
Assay type: cell-based, human
Conditions: for development of CD62L+ NKTs: day 12
Description: PBMC of healthy donors (at least 18 years old) are isolated by gradient centrifugation from buffy coats purchased from Gulf Coast Regional Blood Center. NKTs are purified by anti-iNKT microbeads (Miltenyi Biotec). The negative PBMC fraction is irradiated (40 Gy) and aliquoted. NKTs are stimulated with an aliquot of autologous PBMCs pulsed with 100 ng/niL αGalCer (Kyowa Hakko Kirin). Recombinant IL-2 (200 U/ml, National Cancer Institute Frederick) is added every other day in complete RPMI (HyClone RPMI 1640, 10% heat inactivated fetal bovine serum and 2 mM Glutamax). NKTs are expanded for 10 days and then re-stimulated with autologous PBMC (irradiated with 40 Gy) or Ramos cells as aAPC (irradiated with 100 Gy) when indicated. On day 3 after re-stimulation, 24 well, non-tissue culture plates are coated with retronectin (Takara Bio) and after washing inoculated with 1 ml of retroviral supernatant containing the constructs shown in FIG. 27 and described above and spun for 60 min at 4600 G. The viral supernatant is then removed and stimulated NKTs are added to the wells in complete media and 200 U/ml rhIL-2. Cells are removed from the plate after 48 h, washed, re-suspended at the concentration 10^6 cell/ml in complete RPMI with 200 U/ml IL-2 and plated for continued expansion. NKT-cell number is determined by Trypan Blue (Life technologies) counting. When indicated, NKTs or CAR-NKTs are labeled with CD62L-PE mAb (GREG-56, BD Biosciences) and anti-PE microbeads (Miltenyi) followed by magnetic sorting into CD62L+ and CD62L− subsets according to the manufacturer's instructions. The phenotype of the sorted cells was determined by FACS.
NKTs are stimulated as described in Example 2 but treated with three separate doses of PBS or 500 ng/mL Wnt3a given on day 0, 3 and 7 after antigenic stimulation. CD62L expression is examined by flow cytometry on day 12 after antigenic stimulation. […]
Following primary stimulation, NKTs are cultured with IL-2 or IL-2/IL-21 for 12 days. […] CD62L expression is analyzed by flow cytometry at the end of expansion.

Nc1cccc(-c2cc3c(Oc4cccc(O)c4)ncnc3[nH]2)c1 [TWS119, reference compound]
development of CD62L+ NKTs (one dose 5 μM on day 7 after antigenic stimulation vs DMSO, n=6 donors): promotes development of CD62L+ NKTs

B1: Wnt3a: recombinant Wnt3a, Wnt ligand (protein, UniProt P56704 19-352, looked up)
Protein Wnt-3a: SYPIWWSLAVGPQYSSLGSQPILCASIPGLVPKQLRFCRNYVEIMPSVAEGIKIGIQECQHQFRGRRWNCTTVHDSLAIFGPVLDKATRESAFVHAIASAGVAFAVTRSCAEGTAAICGCSSRHQGSPGKGWKWGGCSEDIEFGGMVSREFADARENRPDARSAMNRHNNEAGRQAIASHMHLKCKCHGLSGSCEVKTCWWSQPDFRAIGDFLKDKYDSASEMVVEKHRESRGWVETLRPRYTYFKVPTERDLVYYEASPNFCEPNPETGSFGTRDRTCNVSSHGIDGCDLLCCGRGHNARAERRREKCRCVFHWCCYVSCQECTRVYDVHTCK
development of CD62L+ NKTs (500 ng/mL on day 0, 3 and 7 vs PBS, n=3 donors): promotes development of CD62L+ NKTs
CD62L frequency (500 ng/ml on days 0, 1, 2, culture with IL-2 or IL-2/IL-21 for 12 days): works additively with IL-21 to increase CD62L frequency
